In patent US20110243929A1 one finds % of gated cells in the positive quadrant data, which are given here for one substance.

Experiment [1] addresses cynomolgus ICOS (cynomolgus). Kind of experiment: flow cytometry, cynomolgus mesenteric lymph node activated T cells (CD4+ CD45RA-).
The target in experiment [2] is cynomolgus ICOS (cynomolgus). Kind of experiment: flow cytometry, cynomolgus mesenteric lymph node naive T cells (CD4+ CD45RA+).
Experiment [3] concerns the target cynomolgus ICOS (cynomolgus). Kind of experiment: flow cytometry, cynomolgus splenic naive T cells (CD4+ CD45RA+). For orientation: Flow cytometry measures light scatter and fluorescence of single cells or particles in a stream.
The target of experiment [4] is cynomolgus ICOS (cynomolgus). Kind of experiment: flow cytometry, cynomolgus splenic memory T cells (CD4+ CD45RA-).

Chain of cynomolgus ICOS (cynomolgus) (A0A2K5 entry or part of it limits assumed): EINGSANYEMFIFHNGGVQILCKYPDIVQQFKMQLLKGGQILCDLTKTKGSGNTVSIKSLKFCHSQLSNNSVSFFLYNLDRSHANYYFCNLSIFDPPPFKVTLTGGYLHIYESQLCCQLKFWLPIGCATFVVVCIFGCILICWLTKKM

With Isotype Control (antibody), the % of gated cells in the positive quadrant in experiment [1] is 1.64%; in experiment [2], 2.8%; in experiment [3], 1.7%; in experiment [4], 2.4%.
